Earlier results on one substance are cited in publication PMC4715488.

Usually Kd stands for a measure of binding affinity in units of concentration.

The series deals with GPP130 (Homo sapiens) (UniProt O00461).
UniProt O00461, sequence (O00461 2-696): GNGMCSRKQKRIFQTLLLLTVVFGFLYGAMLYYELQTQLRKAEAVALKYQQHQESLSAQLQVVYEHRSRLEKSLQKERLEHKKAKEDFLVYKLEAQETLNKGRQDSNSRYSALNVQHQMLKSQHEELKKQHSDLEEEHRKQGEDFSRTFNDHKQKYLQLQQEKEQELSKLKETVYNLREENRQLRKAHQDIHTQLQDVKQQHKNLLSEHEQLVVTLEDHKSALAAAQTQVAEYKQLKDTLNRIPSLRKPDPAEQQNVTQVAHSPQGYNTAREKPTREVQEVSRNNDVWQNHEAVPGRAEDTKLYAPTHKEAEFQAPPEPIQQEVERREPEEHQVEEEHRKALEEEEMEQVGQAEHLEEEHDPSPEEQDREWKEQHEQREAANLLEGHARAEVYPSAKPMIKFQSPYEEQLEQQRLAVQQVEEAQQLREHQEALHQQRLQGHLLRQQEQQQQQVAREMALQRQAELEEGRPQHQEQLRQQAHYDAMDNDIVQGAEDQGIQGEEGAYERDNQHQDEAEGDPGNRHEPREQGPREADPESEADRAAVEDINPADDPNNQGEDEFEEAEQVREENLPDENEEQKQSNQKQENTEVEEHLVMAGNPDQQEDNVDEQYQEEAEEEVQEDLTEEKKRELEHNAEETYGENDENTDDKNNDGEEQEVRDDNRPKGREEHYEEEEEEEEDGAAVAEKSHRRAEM

With “Shiga toxin 1 B subunit (STx1B) (from UniProt Q32GM0)”, the Kd is 0.15 µM.
